This data set is described as follows: circular dichroism. The note with it: 10 mM K phosphate, 100 mM KF; pH 7; 20 °C; 150 uM.

Where a SMILES comes first, the peptide text is derived from it. Bridges are numbered along the chain shown (N, C = ends).

For 10 molecules, helicity results are on record in paper PMC3609778, “Truncated and Helix-Constrained Peptides with High Affinity and Specificity for the cFos Coiled-Coil of AP-1” (PLoS ONE, 2013).

Molecule `CC[C@H](C)[C@@H]1NC(=O)[C@H](CCC(=O)O)NC(=O)[C@@H](NC(=O)[C@H](CCCCN)NC(=O)[C@H](CC(C)C)NC(C)=O)CCCCNC(=O)C[C@@H](C(=O)N[C@@H](CC(C)C)C(=O)N[C@@H](CCCNC(=N)N)C(=O)N[C@@H](CCCCN)C(=O)N[C@@H](CCCCN)C(=O)N[C@@H](C)C(=O)N[C@H]2CCCCNC(=O)C[C@@H](C(=O)N[C@@H](Cc3c[nH]cn3)C(N)=O)NC(=O)[C@H](CCCNC(=N)N)NC(=O)[C@H](CC(C)C)NC(=O)[C@H](CCSC)NC2=O)NC(=O)[C@H](Cc2ccc(O)cc2)NC1=O` (Ac-LKKEIYDLRKKAKMLRDH-NH2; lactam 3-7, 13-17) registered a helicity of 0.49 frac. The same measure for `CC[C@H](C)[C@H](NC(=O)[C@H](Cc1c[nH]cn1)NC(=O)[C@@H]1CC(=O)NCCCC[C@H](NC(=O)[C@H](C)NC(=O)[C@H](CCCCN)NC(=O)[C@H](CO)NC(=O)[C@H](CCCNC(=N)N)NC(=O)[C@H](CC(C)C)NC(=O)[C@@H]2CC(=O)NCCCC[C@H](NC(=O)[C@H](CCCCN)NC(=O)[C@H](CC(C)C)NC(C)=O)C(=O)N[C@@H](CCC(=O)O)C(=O)N[C@@H](CC(N)=O)C(=O)N[C@@H](Cc3ccc(O)cc3)C(=O)N2)C(=O)N[C@@H](CCSC)C(=O)N[C@@H](CC(C)C)C(=O)N[C@@H](CCCNC(=N)N)C(=O)N1)C(=O)N[C@@H](C)C(=O)N[C@@H](CCC(N)=O)C(=O)N[C@@H](CC(C)C)C(N)=O` (Ac-LKKENYDLRSKAKMLRDHIAQL-NH2; lactam 3-7, 13-17): 0.33 frac. Then `CC[C@H](C)[C@H](NC(=O)[C@H](Cc1c[nH]cn1)NC(=O)[C@@H]1CC(=O)NCCCC[C@H](NC(=O)[C@H](C)NC(=O)[C@H](CC(C)C)NC(=O)[C@H](CO)NC(=O)[C@H](CCCNC(=N)N)NC(=O)[C@H](CC(C)C)NC(=O)[C@@H]2CC(=O)NCCCC[C@H](NC(=O)[C@H](CCCCN)NC(=O)[C@H](CC(C)C)NC(C)=O)C(=O)N[C@@H](CCC(=O)O)C(=O)N[C@@H]([C@@H](C)CC)C(=O)N[C@@H](Cc3ccc(O)cc3)C(=O)N2)C(=O)N[C@@H](CCSC)C(=O)N[C@@H](CC(C)C)C(=O)N[C@@H](CCCNC(=N)N)C(=O)N1)C(=O)N[C@@H](C)C(=O)N[C@@H](CCC(N)=O)C(=O)N[C@@H](CC(C)C)C(N)=O` (Ac-LKKEIYDLRSLAKMLRDHIAQL-NH2; lactam 3-7, 13-17), with 0.34 frac; and `CC[C@H](C)[C@H](NC(C)=O)C(=O)N[C@@H](Cc1ccc(O)cc1)C(=O)N[C@@H](CCC(=O)O)C(=O)N[C@@H](CC(C)C)C(=O)N[C@@H](CCCNC(=N)N)C(=O)N[C@@H](CO)C(=O)N[C@@H](CCCCN)C(=O)N[C@@H](C)C(=O)N[C@H]1CCCCNC(=O)C[C@@H](C(=O)N[C@@H](Cc2c[nH]cn2)C(=O)N[C@H](C(=O)N[C@@H](C)C(=O)N[C@@H](CCC(N)=O)C(=O)N[C@@H](CC(C)C)C(N)=O)[C@@H](C)CC)NC(=O)[C@H](CCCNC(=N)N)NC(=O)[C@H](CC(C)C)NC(=O)[C@H](CCSC)NC1=O` (Ac-IYELRSKAKMLRDHIAQL-NH2; lactam 9-13), with 0.34 frac. The same measure for `CC[C@H](C)[C@@H]1NC(=O)[C@H](Cc2c[nH]cn2)NC(=O)[C@@H](NC(=O)[C@H](CCCNC(=N)N)NC(=O)[C@H](CC(C)C)NC(=O)[C@H](CCSC)NC(=O)[C@H](CC(N)=O)NC(=O)[C@H](C)NC(=O)[C@H](CCCCN)NC(=O)[C@H](CO)NC(=O)[C@H](CCCNC(=N)N)NC(=O)[C@H](CC(C)C)NC(=O)[C@@H]2CC(=O)NCCCC[C@H](NC(=O)[C@H](CCCCN)NC(=O)[C@H](CC(C)C)NC(C)=O)C(=O)N[C@@H](CCC(=O)O)C(=O)N[C@@H]([C@@H](C)CC)C(=O)N[C@@H](Cc3ccc(O)cc3)C(=O)N2)CCCCNC(=O)C[C@@H](C(=O)N[C@@H](CC(C)C)C(N)=O)NC(=O)[C@H](C)NC1=O` (Ac-LKKEIYDLRSKANMLRKHIADL-NH2; lactam 3-7, 17-21): 0.57 frac.

Turning to `CC[C@H](C)[C@H](NC(C)=O)C(=O)N[C@H]1CCCCNC(=O)C[C@@H](C(=O)N[C@@H](CCCCN)C(=O)N[C@@H](C)C(=O)N[C@H]2CCCCNC(=O)C[C@@H](C(=O)N[C@@H](Cc3c[nH]cn3)C(=O)N[C@H](C(=O)N[C@@H](C)C(=O)N[C@@H](CCC(N)=O)C(=O)N[C@@H](CC(C)C)C(N)=O)[C@@H](C)CC)NC(=O)[C@H](CCCNC(=N)N)NC(=O)[C@H](CC(C)C)NC(=O)[C@H](CCSC)NC2=O)NC(=O)[C@H](CCCNC(=N)N)NC(=O)[C@H](CC(C)C)NC(=O)[C@H](CCC(=O)O)NC1=O` (Ac-IKELRDKAKMLRDHIAQL-NH2; lactam 2-6, 9-13), the helicity is 0.35 frac. Then `CC[C@H](C)[C@@H]1NC(=O)[C@H](CCC(=O)O)NC(=O)[C@@H](NC(=O)[C@H](CCCCN)NC(=O)[C@H](CC(C)C)NC(C)=O)CCCCNC(=O)C[C@@H](C(=O)N[C@@H](CC(C)C)C(=O)N[C@@H](CCCNC(=N)N)C(=O)N[C@H]2CCCCNC(=O)C[C@@H](C(=O)N[C@@H](CC(C)C)C(=O)N[C@@H](CCCNC(=N)N)C(=O)N[C@@H](CCC(=O)O)C(=O)N[C@@H](Cc3c[nH]cn3)C(N)=O)NC(=O)[C@H](CCCCN)NC(=O)[C@H](C)NC(=O)[C@H](CCCCN)NC2=O)NC(=O)[C@H](Cc2ccc(O)cc2)NC1=O` (Ac-LKKEIYDLRKKAKDLREH-NH2; lactam 3-7, 10-14), with 0.39 frac; and `CC[C@H](C)[C@H](NC(=O)[C@H](Cc1c[nH]cn1)NC(=O)[C@@H]1CC(=O)NCCCC[C@H](NC(=O)[C@H](C)NC(=O)[C@H](CCCCN)NC(=O)[C@H](CO)NC(=O)[C@H](CCCNC(=N)N)NC(=O)[C@H](CC(C)C)NC(=O)[C@@H]2CC(=O)NCCCC[C@H](NC(=O)[C@H](CCCNC(=N)N)NC(=O)[C@H](CC(C)C)NC(C)=O)C(=O)N[C@@H](CCC(=O)O)C(=O)N[C@@H]([C@@H](C)CC)C(=O)N[C@@H](Cc3ccc(O)cc3)C(=O)N2)C(=O)N[C@@H](CCSC)C(=O)N[C@@H](CC(C)C)C(=O)N[C@@H](CCCNC(=N)N)C(=O)N1)C(=O)N[C@@H](C)C(=O)N[C@@H](CCC(N)=O)C(=O)N[C@@H](CC(C)C)C(N)=O` (Ac-LRKEIYDLRSKAKMLRDHIAQL-NH2; lactam 3-7, 13-17), with 0.34 frac; and `CC[C@H](C)[C@H](NC(C)=O)C(=O)N[C@H]1CCCCNC(=O)C[C@@H](C(=O)N[C@@H](CCCCN)C(=O)N[C@@H](C)C(=O)N[C@@H](CC(N)=O)C(=O)N[C@@H](CCSC)C(=O)N[C@@H](CC(C)C)C(=O)N[C@@H](CCCNC(=N)N)C(=O)N[C@@H](CCC(=O)O)C(=O)N[C@@H](Cc2c[nH]cn2)C(=O)N[C@H](C(=O)N[C@@H](C)C(=O)N[C@@H](CCC(N)=O)C(=O)N[C@@H](CC(C)C)C(N)=O)[C@@H](C)CC)NC(=O)[C@H](CCCNC(=N)N)NC(=O)[C@H](CC(C)C)NC(=O)[C@H](CCC(=O)O)NC1=O` (Ac-IKELRDKANMLREHIAQL-NH2; lactam 2-6), with 0.3 frac.

In turn, `CC[C@H](C)[C@@H]1NC(=O)[C@H](Cc2c[nH]cn2)NC(=O)[C@@H](NC(=O)[C@H](CCCNC(=N)N)NC(=O)[C@H](CC(C)C)NC(=O)[C@@H]2CC(=O)NCCCC[C@H](NC(=O)[C@H](CCCNC(=N)N)NC(=O)[C@H](CC(C)C)NC(=O)[C@@H]3CC(=O)NCCCC[C@H](NC(=O)[C@H](CCCCN)NC(=O)[C@H](CC(C)C)NC(C)=O)C(=O)N[C@@H](CCC(=O)O)C(=O)N[C@@H]([C@@H](C)CC)C(=O)N[C@@H](Cc4ccc(O)cc4)C(=O)N3)C(=O)N[C@@H](CCCCN)C(=O)N[C@@H](C)C(=O)N[C@@H](CC(N)=O)C(=O)N2)CCCCNC(=O)C[C@@H](C(=O)N[C@@H](CC(C)C)C(N)=O)NC(=O)[C@H](C)NC1=O` (Ac-LKKEIYDLRKKANDLRKHIADL-NH2; lactam 3-7, 10-14, 17-21) showed a helicity of 0.43 frac.
